# Test results reported in US20030157712A1, “Methods for determining cell responses through EphB receptors” (priority 1997, published 2003).
# What was measured:
# HEK293 cells = test: Solid phase cell attachment assay (HEK293); assay type: cell-based, human
# Description: Cell culture and transfection. Human embryonic kidney cells, HEK293, were passaged in minimum essential medium (Life Technologies) supplemented with 10% fetal bovine serum (Hyclone Laboratories, Logan, Utah). HRMEC were cultured as described (12). HEK293 cells were transfected with Lipofectamine Plus (Life Technologies) as described by the manufacturer. The expression constructs pSRα-hEphB1-HA, pSRα-hEphB1-HA-K652R, pSRα-hEphB1-HA-Y596F and pSRα-hEphB1-HA-Y929F have been described previously (45,46). Cell attachment assays were performed 48 hours after transfection.
# Solid phase cell attachment assays. Forty-eight-well plates (Falcon) were coated with a layer of nitrocellulose (Schleicher & Schuell) and allowed to air dry as described (47). Coated wells were incubated overnight at 4° C. with PBS containing matrix proteins at the indicated concentrations alone (no addition, NA) or in combination with dimeric EphrinB1/Fc. Two hours prior to assay, wells were washed twice then blocked at 37° C. with 1% BSA. Serum starved cells were harvested in 2 mM EDTA in PBS (HEK293) or recovered by trypsinization (HRMEC), washed twice in serum free medium containing 1% BSA, then plated at a density of 0.7-1×10^5 cells per well. […] Adherent cells were fixed with 2% glutaraldehyde, stained with 0.5% crystal violet (in EtOH), and quantified by OD reading at 570 nm. […]
# HRMEC [1] = conditions: background art; cited from earlier work
# α5β1 integrin = test: Surface biotinylation and integrin immunoprecipitation (HEK293); assay type: cell-based, human; conditions: 60 min on coated dishes
# Description: (§1) Surface biotinylation and integrin immunoprecipitation. To determine if surface integrin expression was altered by transfection and/or exposure to ephrinB1/Fc, cells were biotinylated for 30 min at 4° C. with 0.5 mg/ml Sulfo-NHS-LC-Biotin (Pierce, Rockford, Ill.) before plating onto 60 mm dishes coated with nitrocellulose, fibrinogen and EphrinB1/Fc. After a 60 min incubation at 37° C., cells were harvested in WG buffer (15) and immunoprecipitation performed with 2 ug of the integrin antibodies used in the competition experiments. After SDS-PAGE (non-reducing conditions) and Western blotting, biotinylated proteins were detected by enhanced chemiluminescence using ECL Western Blotting Detection (Amersham).
# αvβ3 integrin = test: Surface biotinylation and integrin immunoprecipitation (endothelial cells); assay type: cell-based, human; conditions: 60 min on coated dishes
# Description: as §1
# EphB1 = target: T1, EphB1 (Homo sapiens, UniProt P54762); test: EphB1 immunoprecipitation and phosphotyrosine immunoblot; assay type: cell-based; conditions: in each cell type (HRMEC, HUVEC)
# T1 construct: Ligand stimulation and immunoprecipitation of endogenous EphB receptors; endogenous in cells; host or cells: HRMEC (human); P19 (murine teratocarcinoma) in part of the results
# T1 sequence (P54762 18-984): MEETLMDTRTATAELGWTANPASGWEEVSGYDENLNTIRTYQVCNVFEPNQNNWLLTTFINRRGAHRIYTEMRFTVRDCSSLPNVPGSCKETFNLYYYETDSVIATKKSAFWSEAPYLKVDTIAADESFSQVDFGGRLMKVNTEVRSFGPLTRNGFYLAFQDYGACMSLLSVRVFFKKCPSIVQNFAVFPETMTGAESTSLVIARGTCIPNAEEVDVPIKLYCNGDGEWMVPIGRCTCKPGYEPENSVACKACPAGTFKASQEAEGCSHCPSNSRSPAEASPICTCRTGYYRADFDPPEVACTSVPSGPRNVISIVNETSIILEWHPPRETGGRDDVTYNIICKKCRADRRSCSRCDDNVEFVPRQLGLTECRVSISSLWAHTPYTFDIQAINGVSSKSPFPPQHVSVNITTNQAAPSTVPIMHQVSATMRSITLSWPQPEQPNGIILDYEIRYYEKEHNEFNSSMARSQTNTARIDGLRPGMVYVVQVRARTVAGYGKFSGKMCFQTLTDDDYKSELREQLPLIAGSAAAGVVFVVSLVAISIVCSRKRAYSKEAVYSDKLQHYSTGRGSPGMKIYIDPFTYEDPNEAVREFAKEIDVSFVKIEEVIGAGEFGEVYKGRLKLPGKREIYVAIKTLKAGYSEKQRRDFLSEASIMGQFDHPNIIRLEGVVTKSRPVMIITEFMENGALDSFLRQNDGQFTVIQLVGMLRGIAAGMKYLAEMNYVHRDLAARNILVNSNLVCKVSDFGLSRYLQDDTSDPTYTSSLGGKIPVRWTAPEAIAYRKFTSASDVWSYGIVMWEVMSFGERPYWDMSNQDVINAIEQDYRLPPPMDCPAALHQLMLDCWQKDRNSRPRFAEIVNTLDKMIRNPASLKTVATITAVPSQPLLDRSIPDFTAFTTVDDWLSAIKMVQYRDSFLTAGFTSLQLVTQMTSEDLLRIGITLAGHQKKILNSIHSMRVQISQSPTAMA
# HUVEC [2] = test: Two dimensional capillary-like assembly assay (HUVEC); assay type: cell-based, human; conditions: Matrigel-coated surfaces, defined medium; vascular bed comparison
# Description: (§2) For these studies, HRMEC or HUVEC were plated on Matrigel-coated surfaces in defined medium in a two dimensional capillary-like assembly assay. Ephrin-B1 promoted capillary-like assembly of HRMEC, but not HUVEC, while ephrin-A1 promoted assembly of HUVEC but not HRMEC, in identical media at concentrations appropriate for their respective affinities for EphB1 and EphA2. In each cell type, ephrin-B1 and ephrin-A1 promoted tyrosine phosphorylation of 130 kDa EphB1 and EphA2, both of which are expressed in each system.
# HRMEC [3] = test: Endothelial assembly into capillary-like structures (HRMEC); assay type: cell-based, human; conditions: Matrigel-coated surfaces, defined medium; vascular bed comparison
# Description: Endothelial assembly into capillary-like structures. Twelve well plates (Falcon) were coated with thin layers of Matrigel. HRMEC were plated at a density of 4×10^4 cells/well in DME containing 1% fetal bovine serum. Indicated agonists, control peptides, alone, or in combination with the EphB1/Fc antagonist (1000 ng ml^−1) (FIG. 5) were added at the time of plating. Cells were incubated at 37° C. for 8 h and photographed using phase microscopy (magnification 100×) (Diaphot-TMD, Nikon).
# HUVEC [4] = conditions: background art; cited from earlier work
# EphA2 = target: T2, EphA2 (Homo sapiens, UniProt P29317); test: EphA2 tyrosine phosphorylation in endothelial cells; assay type: cell-based; conditions: in each cell type (HRMEC, HUVEC)
# T2 construct: 130 kDa EphB1 and EphA2, both of which are expressed in each system; endogenous in cells; host or cells: HRMEC and HUVEC
# Description: as §2
Molecule,attachment to fibrinogen of HEK293 cells transiently expressing EphB1 (HEK293 cells; 48 hours after transfection),"attachment to fibrinogen or RGD peptide of untransfected HEK293 cells (HEK293 cells; basal conditions, no endogenous EphB1 or EphB2)",assembly of HRMEC into capillary-like structures (reference 8) (HRMEC [1]),surface expression of HEK293 α5β1 integrin (α5β1 integrin),surface expression of endothelial αvβ3 integrin (αvβ3 integrin),tyrosine phosphorylation of 130 kDa EphB1 (EphB1),capillary-like assembly of HUVEC (HUVEC [2]),capillary-like assembly of HRMEC (HRMEC [3]),capillary-like assembly of HUVEC (reference 8) (HUVEC [4]),tyrosine phosphorylation of 130 kDa EphA2 (EphA2)
Ephrin-B1: transmembrane ligand of EphB subclass receptors (protein) LAKNLEPVSWSSLNPKFLSGKGLVIYPKIGDKLDIICPRAEAGRPYEYYKLYLVRPEQAAACSTVLDPNVLVTCNRPEQEIRFTIKFQEFSPNYMGLEFKKHHDYYITSTSNGSLEGLENREGGVCRTRTMKIIMKVGQDPNAVTPEQLTTSRPSKEADNTVKMATQAPGSRGSLGDSDGKHETVNQEEKSGPGASGGSSGDPDGFFNSK,increases in attachment,no ephrin-B1 dependent change,promotes,did not increase,did not increase,promoted,not,promoted,not responsive,–
"ephrin-A1: GPI-linked membrane protein, primary ligand for EphA2 (Eck) (protein) DRHTVFWNSSNPKFRNEDYTIHVQLNDYVDIICPHYEDHSVADAAMEQYILYLVEHEEYQLCQPQSKDQVRWQCNRPSAKHGPEKLSEKFQRFTPFTLGKEFKEGHSYYYISKPIHQHEDRCLRLKVTVSGKITHSPQAHDNPQEKRLAADDPEVRVLHSIGHS",–,–,no capillary-assembly activity,–,–,–,promoted,not,promotes,promoted
